Results on 14 molecules are retold here after patent US11840574B2, “Anti-DR5 antibody and use thereof” (DONG-A ST CO., LTD., priority 2017, dated 2023).

The test addresses Human DR5 (Homo sapiens, UniProt O14763). Description: Binding affinity of antibody to human DR5 (BIAcore, CM5 chip). The conditions noted are these: for Ka / Ka(1/Ms): association rate, Human DR5, 1:1 Langmuir binding model; for Kd: equilibrium dissociation constant, Human DR5. The procedure: In order to measure affinity, human DR5 was coupled to carboxylated dextran biosensor chips (CM5, GE) according to the manufacturer's instruction. Association and dissociation rates were assessed by injecting IgG proteins that were 2-fold serially diluted to 5 nM, 2.5 nM, 1.25 nM, 0.625 nM, 0.313 nM, and 0.156 nM.
Association and dissociation rates were depicted in association and dissociation sensorgrams and calculated using a simple 1:1 Langmuir binding model (BIAcore X100 Evaluation Software, ver. 2.0). The equilibrium dissociation constants (KD), which is the ratio of dissociation constant (Kd) to association constant (Ka), were confirmed to be in the sub-nanomolar range. Measurements of the binding of antibody D0 and DA1 to DA35 of the present disclosure to DR5 are given in Table 11 below (antibody names are given as the names of the clones from which the antibodies were derived). A representative sensorgram for D0 is depicted in FIG. 1.
For orientation: SPR reads the build-up and loss of mass on a sensor chip optically.

B1: DA5: humanized or deimmunized variant of parental clone D0; CDRs SEQ ID NO 1, 2, 7 / 4, 10, 13 (antibody, V domains shown)
VH: EVQLVESGGGLVQPGGSLRLSCAASGFTFSSFNMLWVRQAPGKGLEWVAGIGKSDRYTGYGSAVKGRFTISRDDSKSTAYLQMNSLRAEDTAVYYCVRDAGSGCGSGGWTGACIDTWGQGTLVTVSS
VL: DIQMTQSPSSLSASVGDRVTITCSGGDSYAGSYYYGWYQQKPGKAPKTLIYNNNNRPSGVPSRFSGSTSGTDFTLTISSLQPEDFATYYCGSRDSSYVGIFGQGTKVEIK
B1: the “Ka” value came to 1.2e+06 M⁻¹ s⁻¹.

B2: DA16: humanized or deimmunized variant of parental clone D0; CDRs SEQ ID NO 1, 2, 7 / 4, 10, 16 (antibody, V domains shown)
VH: EVQLVESGGGLVQPGGSLRLSCAASGFTFSSFNMLWVRQAPGKGLEWVAGIGKSDRYTGYGSAVKGRFTISRDTSKNTAYLQMNSLRAEDTAVYYCSRDAGSGCGSGGWTGACIDTWGQGTLVTVSS
VL: DIQMTQSPSSLSASVGDRVTITCSGGDSYAGSYYYGWYQQKPGKAPKTLIYNNNNRPSGVPSRFSGSRSGTDFTLTISSLQPEDFATYYCGSRDSSGAGGFGQGTKVEIK
Usually Kd stands for the equilibrium constant for the complex coming apart. As for B2, the “Ka(1/Ms)” value was 2.11 × 10^06 1/Ms and the Kd worked out at 26.1 pM.

B3: DA8: humanized or deimmunized variant of parental clone D0; CDRs SEQ ID NO 1, 2, 7 / 4, 10, 13 (antibody, V domains shown)
VH: EVQLVESGGGLVQPGGSLRLSCAASGFTFSSFNMLWVRQAPGKGLEWVAGIGKSDRYTGYGSAVKGRFTISRDDSKSTVYLQMNSLRAEDTAVYYCVRDAGSGCGSGGWTGACIDTWGQGTLVTVSS
VL: DIQMTQSPSSLSASVGDRVTITCSGGDSYAGSYYYGWYQQKPGKAPKTLIYNNNNRPSGVPSRFSGSGSGTDFTLTISSLQPEDFATYYCGSRDSSYVGIFGQGTKVEIK
Take B3: the “Ka” value was found to be 1.6e+06 M⁻¹ s⁻¹.

B4: DA15: humanized or deimmunized variant of parental clone D0; CDRs SEQ ID NO 1, 2, 7 / 4, 10, 15 (antibody, V domains shown)
VH: EVQLVESGGGLVQPGGSLRLSCAASGFTFSSFNMLWVRQAPGKGLEWVAGIGKSDRYTGYGSAVKGRFTISRDTSKNTAYLQMNSLRAEDTAVYYCSRDAGSGCGSGGWTGACIDTWGQGTLVTVSS
VL: DIQMTQSPSSLSASVGDRVTITCSGGDSYAGSYYYGWYQQKPGKAPKTLIYNNNNRPSGVPSRFSGSRSGTDFTLTISSLQPEDFATYYCGSRDSDGGGRFGQGTKVEIK
For B4, the “Ka(1/Ms)” value is 2.56 × 10^06 1/Ms and the Kd stood at 1.09 pM.

B5: DA9: humanized or deimmunized variant of parental clone D0; CDRs SEQ ID NO 1, 2, 7 / 4, 10, 13 (antibody, V domains shown)
VH: EVQLVESGGGLVQPGGSLRLSCAASGFTFSSFNMLWVRQAPGKGLEWVAGIGKSDRYTGYGSAVKGRFTISRDDSKSTLYLQMNSLRAEDTAVYYCVRDAGSGCGSGGWTGACIDTWGQGTLVTVSS
VL: DIQMTQSPSSLSASVGDRVTITCSGGDSYAGSYYYGWYQQKPGKAPKTLIYNNNNRPSGVPSRFSGSRSGTDFTLTISSLQPEDFATYYCGSRDSSYVGIFGQGTKVEIK
Consider B5, for which the “Ka” value was found to be 5.6e+06 M⁻¹ s⁻¹.

B6: DA7: humanized or deimmunized variant of parental clone D0; CDRs SEQ ID NO 1, 2, 7 / 4, 10, 13 (antibody, V domains shown)
VH: EVQLVESGGGLVQPGGSLRLSCAASGFTFSSFNMLWVRQAPGKGLEWVAGIGKSDRYTGYGSAVKGRFTISRDDSKSTVYLQMNSLRAEDTAVYYCSRDAGSGCGSGGWTGACIDTWGQGTLVTVSS
VL: DIQMTQSPSSLSASVGDRVTITCSGGDSYAGSYYYGWYQQKPGKAPKTLIYNNNNRPSGVPSRFSGSTSGTDFTLTISSLQPEDFATYYCGSRDSSYVGIFGQGTKVEIK
As to B6, the “Ka” value turned out to be 1.4e+06 M⁻¹ s⁻¹ and the Kd amounted to 1.9 pM.

B7: DA17: humanized or deimmunized variant of parental clone D0; CDRs SEQ ID NO 1, 2, 7 / 4, 12, 13 (antibody, V domains shown)
VH: EVQLVESGGGLVQPGGSLRLSCAASGFTFSSFNMLWVRQAPGKGLEWVAGIGKSDRYTGYGSAVKGRFTISRDDSKSTVYLQMNSLRAEDTAVYYCVRDAGSGCGSGGWTGACIDTWGQGTLVTVSS
VL: DIQMTQSPSSLSASVGDRVTITCSGGDSYAGSYYYGWYQQKPGKAPKTLIYNNNNKAKGVPSRFSGSRSGTDFTLTISSLQPEDFATYYCGSRDSSYVGIFGQGTKVEIK
For the molecule B7, the “Ka(1/Ms)” value is given as 2.54 × 10^06 1/Ms and the dissociation constant (Kd) came out at 23.5 pM.

B8: DA13: humanized or deimmunized variant of parental clone D0; CDRs SEQ ID NO 1, 2, 7 / 4, 10, 14 (antibody, V domains shown)
VH: EVQLVESGGGLVQPGGSLRLSCAASGFTFSSFNMLWVRQAPGKGLEWVAGIGKSDRYTGYGSAVKGRFTISRDTSKNTAYLQMNSLRAEDTAVYYCSRDAGSGCGSGGWTGACIDTWGQGTLVTVSS
VL: DIQMTQSPSSLSASVGDRVTITCSGGDSYAGSYYYGWYQQKPGKAPKTLIYNNNNRPSGVPSRFSGSRSGTDFTLTISSLQPEDFATYYCGSRDSAGMGAFGQGTKVEIK
B8: the “Ka(1/Ms)” value is on record as 2.62 × 10^06 1/Ms and the dissociation constant Kd amounted to 11.2 pM.

B9: DA18: humanized or deimmunized variant of parental clone D0; CDRs SEQ ID NO 1, 2, 7 / 4, 10, 15 (antibody, V domains shown)
VH: EVQLVESGGGLVQPGGSLRLSCAASGFTFSSFNMLWVRQAPGKGLEWVAGIGKSDRYTGYGSAVKGRFTISRDDSKSTVYLQMNSLRAEDTAVYYCVRDAGSGCGSGGWTGACIDTWGQGTLVTVSS
VL: DIQMTQSPSSLSASVGDRVTITCSGGDSYAGSYYYGWYQQKPGKAPKTLIYNNNNRPSGVPSRFSGSRSGTDFTLTISSLQPEDFATYYCGSRDSDGGGRFGQGTKVEIK
In the case of B9, the “Ka(1/Ms)” value is on record as 1.33 × 10^06 1/Ms and binding was characterised by a dissociation constant (Kd) of 27.7 pM.

B10: DA14: humanized or deimmunized variant of parental clone D0; CDRs SEQ ID NO 1, 2, 7 / 4, 12, 13 (antibody, V domains shown)
VH: EVQLVESGGGLVQPGGSLRLSCAASGFTFSSFNMLWVRQAPGKGLEWVAGIGKSDRYTGYGSAVKGRFTISRDTSKNTAYLQMNSLRAEDTAVYYCSRDAGSGCGSGGWTGACIDTWGQGTLVTVSS
VL: DIQMTQSPSSLSASVGDRVTITCSGGDSYAGSYYYGWYQQKPGKAPKTLIYNNNNKAKGVPSRFSGSRSGTDFTLTISSLQPEDFATYYCGSRDSSYVGIFGQGTKVEIK
B10: the “Ka(1/Ms)” value is listed as 4.27 × 10^06 1/Ms and the Kd came to 23.5 pM.

B11: DA6: humanized or deimmunized variant of parental clone D0; CDRs SEQ ID NO 1, 2, 7 / 4, 10, 13 (antibody, V domains shown)
VH: EVQLVESGGGLVQPGGSLRLSCAASGFTFSSFNMLWVRQAPGKGLEWVAGIGKSDRYTGYGSAVKGRFTISRDDSKSTVYLQMNSLRAEDTAVYYCARDAGSGCGSGGWTGACIDTWGQGTLVTVSS
VL: DIQMTQSPSSLSASVGDRVTITCSGGDSYAGSYYYGWYQQKPGKAPKTLIYNNNNRPSGVPSRFSGSTSGTDFTLTISSLQPEDFATYYCGSRDSSYVGIFGQGTKVEIK
Regarding B11, the “Ka” value was 7.8e+06 M⁻¹ s⁻¹.

B12: DA12: humanized or deimmunized variant of parental clone D0; CDRs SEQ ID NO 1, 2, 7 / 4, 11, 13 (antibody, V domains shown)
VH: EVQLVESGGGLVQPGGSLRLSCAASGFTFSSFNMLWVRQAPGKGLEWVAGIGKSDRYTGYGSAVKGRFTISRDTSKNTAYLQMNSLRAEDTAVYYCSRDAGSGCGSGGWTGACIDTWGQGTLVTVSS
VL: DIQMTQSPSSLSASVGDRVTITCSGGDSYAGSYYYGWYQQKPGKAPKTLIYNNNNLMPGVPSRFSGSRSGTDFTLTISSLQPEDFATYYCGSRDSSYVGIFGQGTKVEIK
For the molecule B12, the “Ka(1/Ms)” value is recorded as 2.37 × 10^06 1/Ms and the Kd came out at 12.7 pM.

B13: DA10: humanized or deimmunized variant of parental clone D0; CDRs SEQ ID NO 1, 2, 7 / 4, 10, 13 (antibody, V domains shown)
VH: EVQLVESGGGLVQPGGSLRLSCAASGFTFSSFNMLWVRQAPGKGLEWVAGIGKSDRYTGYGSAVKGRFTISRDTSKNTAYLQMNSLRAEDTAVYYCSRDAGSGCGSGGWTGACIDTWGQGTLVTVSS
VL: DIQMTQSPSSLSASVGDRVTITCSGGDSYAGSYYYGWYQQKPGKAPKTLIYNNNNRPSGVPSRFSGSRSGTDFTLTISSLQPEDFATYYCGSRDSSYVGIFGQGTKVEIK
As to B13, the “Ka” value came out at 2.3e+06 M⁻¹ s⁻¹ and the Kd was 7 pM.

B14: DA24: humanized or deimmunized variant of parental clone D0; CDRs SEQ ID NO 1, 2, 7 / 4, 10, 13 (antibody, V domains shown)
VH: AVTLDESGGGLQTPGGGLSLVCKGSGFTFSSFNMLWVRQAPGKGLEWVAGIGKSDRYTGYGSAVKGRATISRDDGQSTVRLQLNNLRAEDTGTYYCVKDAGSGCGSGGWTGACIDTWGHGTEVIVSS
VL: LTQPSSVSANLGGTVEITCSGGDSYAGSYYYGWYQQKAPGSAPVTVIYNNNNRPSNIPSRFSGSTSGSTATLTITGVQAEDEATYYCGSRDSSYVGIFGAGTTLTVL
As to B14, the “Ka(1/Ms)” value is given as 1.20 × 10^06 1/Ms and the equilibrium dissociation constant (Kd) is 1.02 pM.
